The text below walks through data of patent US20220073643A1 (NANJING GENSCRIPT BIOTECH, published 2022).

What is called EC50 is the concentration giving half of the maximal effect. Read a high EC50 as lower potency in that assay.

B1: 392C2F10 (antibody, V domains shown)
VH: EVQLQQSGPELVKPGASMKISCKASGYSFTGYTMNWVKQSLGKNLEWIGLINPFNGGTTYNQKFKGKATLTVDKSSSTAYMELLSLTSDDSAVYYCTRGDYWGQGTTLTVSS
VL: DIVMTQSPSSLTVTAGEKVTMSCKSSQSLLNSGNQKNYLTWYQQKPGQPPKLLIYWASTRESGVPDRFAGSGSGTDFTLTISSVQAEDLAVYYCQSDYSYPTFGAGTKLELK
notes: mouse hybridoma mAb
B2: 406G3C4 (antibody, V domains shown)
VH: EIQLQQSGPELMKPGASVRISCKASGYSFISYYIYWVKQSHGKGLEWIGYIDPFNGNTNYNQKFKGKATLTVDRSSSTAYIHLNSLTSEDSAVYYCAIVNGYGRGAMDYWGQGTSVTVSS
VL: QIVLTQSPAIMSASPGEKVTMTCSASSSISYMHWYQQKSGTSPKRWIYDTSKLASGVPARFSGSGSGTSYSLTISSMEAEDAATYYCQQWSSNPLTFGDGTKLELK
notes: mouse hybridoma mAb
B3: 410H6H3 (antibody, V domains shown)
VH: DVLLVESGGGLVQPGGSRKLSCAASGFTFSSSGMHWVRQAPEKGLEWVAYISSGSNTIYYADTLKGRFTISRDNPKNTLFLQMTSLRSEDTAMYYCARIYYGNSFVYWGQGTLVTVSA
VL: DIVMTQSPSSLTVTAGEKVIMSCKSSQSLLNSGNQKNYLTWYQQKPGQPPKMLIYWASTRESGVPDRFRGSGSGTDFTLTISSVQAEDLAVYYCQNNYYYPLTFGTGTKLALK
notes: mouse hybridoma mAb
B4: 413C12F8 (antibody, V domains shown)
VH: DVQLVESGGGLVQPGGSRKLSCAASGFTFSGFGVHWIRQTPEKGLEWVAYIGSGSRPIYYADTVKGRFTISRDNPKNTLFLQMTSLRSEDTAMYFCARFYYGNSFDHWGQGTLVTVSA
VL: DIVMTQSPSFLTVTAGEKVTMNCRSSQSLLNSGNQKNYLTWYQQRPGQPPKLLIYWASTRESGVPDRFTGSGSGTDFTLTISSVQAEDLALYYCQNAYSFPLTFGAGTKLELK
notes: mouse hybridoma mAb
B5: 405G8F11 (antibody, V domains shown)
VH: DVQLVESGGGLVQPGGSRKLSCVTSGFTFSSFGMHWVRQAPEKGLEWVAYISSGSSPIYYADTVKGRFTISRDNPKNTLFLQMSSLRSEDTAMYFCARFYYGNSFAYWGQGTLVTVSA
VL: B4 VL with F10S, R24K, R45K, P46L, I54M, L91V, Y93F, N96S, Y98F, F100Y
notes: mouse hybridoma mAb
B6: 414A5F7 (antibody, V domains shown)
VH: B5 VH with V23A, T24A, S84T, F99I
VL: B3 VL with I20A, S28T, M52L, I54L, R69T, N97A, T106S, A111E
notes: mouse hybridoma mAb
B7: 422F4B6 (antibody, V domains shown)
VH: B5 VH with V23A, T24A, T28S, T69I, S84T, F99I
VL: B4 VL with F10S, N22S, R24K, S28T, R45K, L91V, F100Y, A106S
notes: mouse hybridoma mAb
B8: 407H12E6 (antibody, V domains shown)
VH: B5 VH with V23A, T24A, F29V, S84T, M93I, A106D, Y107H
VL: DIVMTQSPSSLTVTTGEKVTMSCKSSQSLLNSGNQKNYLTWYQQKPGQSPKLLIYWASTRESGVPDRFTGSGSGTDFTLTISSVQTEDLAVYFCQNNYFFPLTFGAGTKLELK
notes: mouse hybridoma mAb
B9: 393C2C5 (antibody, V domains shown)
VH: B5 VH with V23A, T24A, S84T, R98T
VL: DIVMTQSPSSLTVTAGEKVTMSCKSSQTLLNSGNQKNYLTWYQQKSGQPPKLLIYWASTRESGVPDRFTGSGSGTDFTLTISSVQAEDLAVYYCQNAYSYPVTFGSGTKVELK
notes: mouse hybridoma mAb
B10: 410A9A9 (antibody, V domains shown)
VH: B5 VH with V23A, T24A, S84T, R98T
VL: B9 VL
notes: mouse hybridoma mAb
B11: 412B6E4 (antibody, V domains shown)
VH: B5 VH with V23A, T24A, M34V, P57T, D62H, T63S, S84T, R87G, M93T, F95Y
VL: B3 VL with I20T, R69T, N97A, Y99T, T106A, K109R, A111E
notes: mouse hybridoma mAb
B12: 413B1C9 (antibody, V domains shown)
VH: B5 VH with V23A, T24A, S84T, A106D, Y107H
VL: B8 VL with T20S, L30F, S32R, N37S, S49P, T86A, F93Y, F99I, F100Y
notes: mouse hybridoma mAb
B13: 426D9F6 (antibody, V domains shown)
VH: B4 VH with V34M, G52S
VL: B4 VL with N22S, R24K, K36R, R45K, I81V
notes: mouse hybridoma mAb
B14: 430B3F1 (antibody, V domains shown)
VH: B4 VH with V34M, G52S, S55G, K65Q, V116I, A118S
VL: B4 VL with N22S, R24K, R45K
notes: mouse hybridoma mAb
B15: 420D5H5 (antibody, V domains shown)
VH: B4 VH with F29L, V34M, G52S, A61V, K65E, A118S
VL: B4 VL with N22S, R24K, R45K, S82R, S83G
notes: mouse hybridoma mAb
B16: 421H4G3 (antibody, V domains shown)
VH: B4 VH with T28S, V34L, G52S, Y101F, A118T
VL: B4 VL with N22S, K36R, R45K, S82N
notes: mouse hybridoma mAb
B17: 414H6G2 (antibody, V domains shown)
VH: B4 VH with V34M, P41A, G52S, K65Q
VL: B4 VL with N22S, R24K, R45K
notes: mouse hybridoma mAb
B18: 419A5F3 (antibody, V domains shown)
VH: B4 VH with V34M, G52S, G54D, A97G
VL: B4 VL with M21L, N22S, K36R, R45K, L89R, A106T, K113R
notes: mouse hybridoma mAb
B19: 426H6E11 (antibody, V domains shown)
VH: B4 VH with V34M, G52S, K65Q, A118S
VL: B4 VL with S7F, N22S, R24K, S28T, R45K, K109N
notes: mouse hybridoma mAb
B20: 422E8F9 (antibody, V domains shown)
VH: B4 VH with V34M, G52S, K65Q, A118S
VL: B4 VL with N22S, R24K, R45K
notes: mouse hybridoma mAb
B21: 420G10G3 (antibody, V domains shown)
VH: B4 VH with V34M, P41A, G52S, K65Q
VL: B4 VL with N22S, R24K, R45K
notes: mouse hybridoma mAb
B22: 425C6D3 (antibody, V domains shown)
VH: B4 VH with V34M, G52S, K65Q, A118S
VL: B4 VL with N22S, R24K, R45K
notes: mouse hybridoma mAb
B23: 419A10D4 (antibody, V domains shown)
VH: B4 VH with V34M, G52S
VL: B4 VL with N22S, R24K, K36R, R45K, I81V
notes: mouse hybridoma mAb
B24: 420F12G8 (antibody, V domains shown)
VH: B4 VH with T28A, V34M, G52S, A97V
VL: B4 VL with N22T, S28N, R45K, Y55S, A86P, L102F
notes: mouse hybridoma mAb
B25: 425B3D5 (antibody, V domains shown)
VH: B4 VH with V34M, G52S, K65Q, A118S
VL: B4 VL with N22S, R24K, R45K
notes: mouse hybridoma mAb

Residue numbers refer to the chain shown, from its start.

The target in the test is T1, human Claudin18.2 (human).
T1 construct: also called CLDN18.2
As to the kind of experiment: cell ELISA, Claudin18.2-expressing HEK293T cells. An outline of the steps: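 Claudin18.2-expressing HEK293T stable cells (1.5×10⁶ cells/ml in 5% skim milk/PBS blocking buffer) were incubated 1 h at room temperature in plates pre-blocked overnight at 4° C. EC₅₀ was derived by four-parameter curve fit.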
A general note: An ELISA detects its analyte on a solid surface through an enzyme-linked reagent.
Turning to B1, the EC50 turned out to be 350 nM.
As for B2, the figure is 12.6 nM.
In the case of B3, it took 45.5 nM to reach a half-maximal effect (EC50).
B4 showed an EC50 of 3.55 nM.
B5 registered an EC50 of approximately 91.2 nM.
As for B6, a half-maximal effect (EC50) was put at 15.5 nM.
With B7, the EC50 was determined as 2.53 nM.
B8 gave a concentration giving a half-maximal response (EC50) of 2.39 nM.
Under B9 stands 4.45 nM; under B10, 6.21 nM.
The molecule B11 gave a half-maximal effective concentration (EC50) of 33.1 nM.
As for B12, the figure is 24.6 nM; as for B13, 2.14 nM; as for B14, 2.56 nM.
The molecule B15 yielded a concentration for a half-maximal effect (EC50) of 7.03 nM.
Turning to B16, the half-maximal effective concentration (EC50) was 2.47 nM.
As for B17, the figure is 12 nM.
Molecule B18 displayed an EC50 of 2.61 nM.
Under B19 stands 1.78 nM; under B20, 1.88 nM.
The molecule B21 showed an EC50 of 2.39 nM.
Under B22 stands 1.92 nM.
The molecule B23 showed an EC50 of 2.33 nM.
Under B24 stands 2.61 nM; under B25, 2.61 nM.
